Results from article PMC12363175 (2025).
Substitutions are numbered along the chain they refer to.

B1: goat ACE2 ectodomain fused with mFc (Fc fusion)
chain: QSTTEEQAKTFLEKFNHEAEDLSYQSSLASWNYNTNITDENVQKMNEARAKWSAFYEEQSRMARTYSLEEIQNLTLKRQLKALQHSGTSVLSAEKSKRLNTILNKMSTIYSTGKVLDPNTQECLALEPGLDDIMENSRDYNRRLWAWEGWRAEVGKQLRPLYEEYVVLENEMARANNYEDYGDYWRGDYEVTGAGDYDYSRDQLMKDVERTFAEIKPLYEQLHAYVRAKLMNTYPSYISPTGCLPAHLLGDMWGRFWTNLYSLTVPFEHKPSIDVTEKMKNQSWDAERIFKEAEKFFVSIGLPYMTQGFWNNSMLTEPGDGRKVVCHPTAWDLGKGDFRIKMCTKVTMDDFLTAHHEMGHIQYDMAYATQPYLLRNGANEGFHEAVGEIMSLSAATPHYLKALGLLAPDFYEDNETEINFLLKQALTIVGTLPFTYMLEKWRWMVFKGEIPKQQWMEKWWEMKREIVGVVEPLPHDETYCDPACLFHVAEDYSFIRYYTRTIYQFQFHEALCKTAKHEGALFKCDISNSTEAGQRLLQMLRLGKSEPWTLALENIVGIKTMDVKPLLNYFEPLFTWLKEQNRNSFVGWSTEWTPYSDQSIKVRISLKSALGENAYEWNDNEMYLFRSSVAYAMRKYFLEDRNETIPFGEENVWVSDKKPRISFKFFVTSPNNVSDIIPRTEVENAIRLCRDRINDAFQLDDNSLEFLGIQPTLRPPYEPP
B2: pig ACE2 ectodomain fused with mFc (Fc fusion)
chain: QSTTEELAKTFLEKFNLEAEDLAYQSSLASWNYNTNITDENIQKMNDARAKWSAFYEEQSRIAKTYPLDEIQTLILKRQLQALQQSGTSGLSADKSKRLNTILNTMSTIYSSGKVLDPNNPQECLVLEPGLDEIMENSKDYSRRLWAWESWRAEVGKQLRPLYEEYVVLENEMARANNYEDYGDYWRGDYEVTGTGDYDYSRNQLMEDVERTFAEIKPLYEHLHAYVRAKLMDAYPSRISPTGCLPAHLLGDMWGRFWTNLYPLTVPFGEKPSIDVTEAMVNQSWDAIRIFEEAEKFFVSIGLPNMTQGFWNNSMLTEPGDGRKVVCHPTAWDLGKGDFRIKMCTKVTMDDFLTAHHEMGHIQYDMAYAIQPYLLRNGANEGFHEAVGEIMSLSAATPHYLKALGLLPPDFYEDSETEINFLLKQALTIVGTLPFTYMLEKWRWMVFKGEIPKEQWMQKWWEMKREIVGVVEPLPHDETYCDPACLFHVAEDYSFIRYYTRTIYQFQFHEALCRTAKHEGPLYKCDISNSTEAGQKLLQMLSLGKSEPWTLALENIVGVKTMDVKPLLSYFEPLLTWLKAQNGNSSVGWNTDWTPYADQSIKVRISLKSALGKEAYEWNDNEMYLFRSSIAYAMRNYFSSAKNETIPFGAEDVWVSDLKPRISFNFFVTSPANMSDIIPRSDVEKAISMSRSRINDAFRLDDNTLEFLGIQPTLGPPDEPP
B3: horse ACE2 ectodomain fused with mFc (Fc fusion)
chain: QSTTEDLAKTFLEKFNSEAEELSHQSSLASWSYNTNITDENVQKMNEAGARWSAFYEEQCKLAKTYPLEEIQNLTVKRQLQALQQSGSSVLSADKSKRLNEILNTMSTIYSTGKVCNPSNPQECLLLEPGLDAIMENSKDYNQRLWAWEGWRSEVGKQLRPLYEEYVVLKNEMARANNYEDYGDYWRGDYEAEGPSGYDYSRDQLIEDVERTFAEIKPLYEHLHAYVRAKLMDTYPSHINPTGCLPAHLLGDMWGRFWTNLYSLTVPFGQKPNIDVTDAMVDQSWDAKRIFEEAEKFFVSVGLPNMTQGFWENSMLTEPGDGRKVVCHPTAWDLGKGDFRIKMCTKVTMDDFLTAHHEMGHIQYDMAYAVQPYLLRNGANEGFHEAVGEIMSLSAATPNHLKAIGLLPPDFYEDSETEINFLLKQALTIVGTLPFTYMLEKWRWMVFKGEIPKEEWMKKWWEMKREIVGVVEPVPHDETYCDPAALFHVANDYSFIRYYTRTIYQFQFQEALCQTAKHEGPLHKCDISNSTEAGQKLLQMLSLGKSEPWTLALERIVGVKNMDVRPLLNYFEPLFTWLKDQNKNSFVGWSTNWSPYADQSIKVRISLKSALGEKSYEWNDNEMYLFQSSVAYAMRVYFLKAKNQTILFGEEDVWVSDLKPRISFNFFVTSPKNASDIIPRTDVEEAIRMSRSRINDAFRLDDNTLEFLGIQPTLGPPYQPPVT
B4: raccoon dog ACE2 ectodomain fused with mFc (Fc fusion)
chain: QSTEDLVNTFLEKFNYEAEELSYQSSLASWNYNTNITDENLQKMNNAGAKWSAFYEEQSKLAKTYPLEEIQDSTVKRQLRALQHSGSSVLSADKNQRLNTILNSMSTIYSTGKACNPSNPQECLLLEPGLDDIMENSKDYNERLWAWEGWRSEVGKQLRPLYEEYVALKNEMARANNYEDYGDYWRGDYEEEWENGYNYSRNQLIDDVEHTFTQIMPLYQHLHAYVRTKLMDTYPSYISPTGCLPAHLLGDMWGRFWTNLYPLTVPFGQKPNIDVTNAMVNQSWDARKIFKEAEKFFVSVGLPNMTQGFWENSMLTEPSDSWKVVCHPTAWDLGRGDFRIKMCTKVTMDDFLTAHHEMGHIQYDMAYAAQPFLLRNGANEGFHEAVGEIMSLSAATPNHLKNIGLLPPSFFEDSETEINFLLKQALTIVGTLPFTYMLEKWRWMVFKGEIPKDQWMKTWWEMKRNIVGVVEPVPHDETYCDPASLFHVANDYSFIRYYTRTIYQFQFQEALCQIAKHEGPLHKCDISNSSEAGQKLLEMLKLGKSKPWTYALEIVVGAKNMDVRPLLNYFEPLFTWLKEQNRNSFVGWNTDWSPYADQSIKVRISLKSALGEKAYEWNNNEMYLFRSSIAYAMRQYFSEVKNQTIPFVEDNVWVSDLKPRISFNFFVTSPGNVSDIIPRTEVEEAIRMYRSRINDVFRLDDNSLEFLGIQPTLGPPYEPPVT
B5: fox ACE2 ectodomain fused with mFc (Fc fusion)
chain: B4 chain with N31D, T37S, L41V, W322R, R335K, Q635R, N642K, E684K, S691G
B6: dog ACE2 ectodomain fused with mFc (Fc fusion)
chain: B4 chain with N8K, T34I, L41V, G308E, W322R, R335K
B7: rabbit ACE2 ectodomain fused with mFc (Fc fusion)
chain: QSTIEELAKTFLEKFNQEAEDLSYQSALASWDYNTNITEENVQKMNDAEAKWSAFYEEQSKLAKTYPSQEVQNLTVKRQLQALQQSGSSALSADKSKQLNTILSTMSTIYSTGKVCNQSNPQECFLLEPGLDEIMAKSTDYNERLWAWEGWRSVVGKQLRPLYEEYVVLKNEMARANNYEDYGDYWRADYEAEGADGYDYSRSQLIDDVERTFSEIKPLYEQLHAFVRTKLMDAYPSRISPTGCLPAHLLGDMWGRFWTNLYSLTVPFGQKPNIDVTDTMVNQGWDAERIFKEAEKFFVSVGLPSMTQGFWENSMLTEPGDGRKVVCHPTAWDLGKGDFRIKMCTKVTMDNFLTAHHEMGHIQYDMAYATQPFLLRNGANEGFHEAVGEIMSLSAATPEHLKSIGLLPYDFHEDNETEINFLLKQALTIVGTLPFTYMLEKWRWMVFKGEIPKEQWMQKWWEMKREIVGVVEPMPHDETYCDPAALFHVANDYSFIRYYTRTIYQFQFQEALCQAAQHEGPLHKCDISNSTEAGQKLLNMLRLGRSEPWTLALENVVGAKNMDVRPLLNYFEPLFTWLKEQNRNSFVGWSTEWTPYADQSIKVRISLKTALGDQAYEWNDSEMYLFRSSVAYAMRKYFSEVKNQTILFGEEDVRVSDLKPRISFNFFVTAPNNVNDIIPRNEVEEAISMSRSRINDIFRLDDNSLEFVGIQPTLEPPYESPVP
B8: Chinese hamster ACE2 ectodomain fused with mFc (Fc fusion)
chain: QSIIEEQAKTFLDKFNQEAEDLSYQSALASWNYNTNITEENAQKMNEAAAKWSAFYEEQSKLAKNYSLQEVQNLIIKRQLQALQQSGSSALSADKNKQLNTILNTMSTIYSTGKVCNPKNPQECLLLEPGLDDIMATSTDYNERLWAWEGWRAEVGKQLRPLYEEYVVLKNEMARANNYKDYGDYWRGDYEAEGADGYNYNGNQLIEDVERTFKEIKPLYEQLHAYVRTKLMDTYPSFISPTGCLPAHLLGDMWGRFWTNLYPLTVPFGQKPNIDVTDAMVNQGWDAERIFKEAEKFFVSVGLPHMTQGFWGNSMLTDPGDDRKVVCHPTAWDLGKGDFRIKMCTKVTMDNFLTAHHEMGHIQYDMAYATQPFLLRNGANEGFHEAVGEIMSLSAATPKHLKSIGLLPSNFHEDNETEINFLLKQALTIVGTLPFTYMLEKWRWMVFKGDIPKEKWMEKWWEMKREIVGVVEPLPHDETYCDPAALFHVSNDYSFIRYYTRTIYQFQFQEALCQAAKHDGPLHKCDISNSTEAGQKLLNMLRLGKSEPWTLALENVVGARNMDVRPLLNYFEPLSVWLKEQNKNSFVGWNTDWSPYADQSIKVRISLKSALGENAYEWNDNEMYLFRATVAYAMRVYFAKNKTQTVLFGVEDIRVSDLKPRVSFNFFVTSPQNVSDIIPRNEVEEAVRFSRGRINDVFGLDDNSLEFLGINPTLAPPYQPPVT
B9: golden hamster ACE2 ectodomain fused with mFc (Fc fusion)
chain: QSIIEEQAKTFLDKFNQEAEDLSYQSALASWNYNTNITEENAQKMNEAAAKWSAFYEEQSKLAKNYSLQEVQNLTIKRQLQALQQSGSSALSADKNKQLNTILNTMSTIYSTGKVCNPKNPQECLLLEPGLDDIMATSTDYNERLWAWEGWRAEVGKQLRPLYEEYVVLKNEMARANNYEDYGDYWRGDYEAEGADGYNYNGNQLIEDVERTFKEIKPLYEQLHAYVRTKLMNTYPSYISPTGCLPAHLLGDMWGRFWTNLYPLTVPFGQKPNIDVTDAMVNQGWNAERIFKEAEKFFVSVGLPYMTQGFWENSMLTDPGDDRKVVCHPTAWDLGKGDFRIKMCTKVTMDNFLTAHHEMGHIQYDMAYATQPFLLRNGANEGFHEAVGEIMSLSAATPEHLKSIGLLPSDFQEDNETEINFLLKQALTIVGTLPFTYMLEKWRWMVFKGDIPKEQWMEKWWEMKREIVGVVEPLPHDETYCDPAALFHVSNDYSFIRYYTRTIYQFQFQEALCQAAKHDGPLHKCDISNSTEAGQKLLNMLRLGKSEPWTLALENVVGARNMDVRPLLNYFEPLSVWLKEQNKNSFVGWNTDWSPYADQSIKVRISLKSALGENAYEWDDNEMYLFRASVAYAMRVYFAKNKTQTVPFGVEDIRVSDLKPRVSFNFFVTSPQNVSDIIPRNEVEEAVRLSRGRINDVFGLDDNSLEFLGINPTLSPPYQPPVT

The binders below were run against SARS-CoV-2 PT-RBD (SARS-CoV-2 prototype, UniProt P0DTC2) (assay: SPR).

Going from B1 to B2, the Kd falls from 451 nM to 175 nM (2.6-fold).

First: B3
Second: B4
The Kd of the first is 6.6-fold lower: 64.4 nM for the first, 424 nM for the second.

Going from B5 to B6, the Kd rises from 59.2 nM to 299 nM (5.1-fold). The first binds more tightly here.

B7 and B8 are within 1.5-fold of each other in Kd: 74.8 nM for the first, 69.4 nM for the second.

In the case of B9, the Kd is reported as 71.8 nM.
